Data: US20120003299A1 (KYOTO UNIVERSITY, published 2012)

Columns and labels:
recombinant human Hsp90 [1] = molecular target: T1, recombinant human Hsp90 (human, UniProt P07900 1-732); assay: SPR competition: Hsp90 without peptide (0 uM, reference) over immobilized Hop TPR2A
T1 construct: The tag is placed first here only because pDEST17 is named; also called heat shock protein 90; not shown: histidine tag from E. coli expression vector pDEST17-Hsp90

recombinant human Hsp90 [2] = molecular target: T1, recombinant human Hsp90; assay: SPR competition: Hsp90 pre-mixed with 282.2 uM peptide, injected over immobilized Hop TPR2A
recombinant human Hsp90 [3] = molecular target: T1, recombinant human Hsp90; assay: SPR competition: Hsp90 pre-mixed with 1.411 uM peptide, injected over immobilized Hop TPR2A
recombinant human Hsp90 [4] = molecular target: T1, recombinant human Hsp90; assay: SPR competition: Hsp90 pre-mixed with 705.5 uM peptide, injected over immobilized Hop TPR2A
recombinant human Hsp90 [5] = molecular target: T1, recombinant human Hsp90; assay: SPR competition: Hsp90 pre-mixed with 14.11 uM peptide, injected over immobilized Hop TPR2A
recombinant human Hsp90 [6] = molecular target: T1, recombinant human Hsp90; assay: SPR competition: Hsp90 pre-mixed with 141.1 uM peptide, injected over immobilized Hop TPR2A

Row | Binder | Binding of Hsp90 (%) (recombinant human Hsp90 [1]) | Binding of Hsp90 (%) (recombinant human Hsp90 [2]) | Binding of Hsp90 (%) (recombinant human Hsp90 [3]) | Binding of Hsp90 (%) (recombinant human Hsp90 [4]) | Binding of Hsp90 (%) (recombinant human Hsp90 [5]) | Binding of Hsp90 (%) (recombinant human Hsp90 [6])
1 | RKFSAAIGYNKY (Control peptide) [TPR scramble peptide] | 100 | 90.7 | 100 | 88.9 | 100 | 100
2 | KAYARIGNSYFK [TPR peptide (KAYARIGNSYFK)] | 100 | 29.8 | 88.2 | 0 | 84.6 | 72.3
